One molecule from publication PMC3496659, “Analysis of the sulfur-regulated control of the cystathionine γ-lyase gene of Neurospora crassa” can be followed below.

The data set addresses T1, CYS3 transcriptional activator (Neurospora crassa, UniProt P22697 1-236).
T1 sequence: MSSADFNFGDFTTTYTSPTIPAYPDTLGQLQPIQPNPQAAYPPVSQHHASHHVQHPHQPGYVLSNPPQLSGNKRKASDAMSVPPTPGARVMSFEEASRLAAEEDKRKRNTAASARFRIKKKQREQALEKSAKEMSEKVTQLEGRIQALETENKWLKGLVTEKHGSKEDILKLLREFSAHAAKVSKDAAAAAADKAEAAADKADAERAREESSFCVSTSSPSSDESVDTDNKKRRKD
The data set can be described thus: EMSA; Binding buffer not given (refs 14,20); 4% PAGE in 50 mM Tris-80 mM glycine-2 mM EDTA pH 8.5, 20 mA, 4 C. Particulars: protein: recombinant; chain copies: 2; label: 32P (T4 PNK); blunt.

B1: cys-16+ Site 3 (dsDNA)
DNA 1: AACCTGAATTGCGCCATAGCCAAA
DNA 2: TTTGGCTATGGCGCAATTCAGGTT
Turning to B1, the binding result is given as “binds”.
